Measured values: patent US6287865
Positions count from the first letter of the chain named.

B1: Cf-2.1 protein (polypeptide encoded by the tomato Cf-2.1 gene) (receptor)
chain: STEEATALLKWKATFKNQNNSFLASWIPSSNACKDWYGVVCFNGRVNTLNITNASVIGTLYAFPFSSLPSLENLDLSKNNIYGTIPPEIGNLTNLVYLDLNNNQISGTIPPQIGLLAKLQIIRIFHNQLNGFIPKEIGYLRSLTKLSLGINFLSGSIPASVGNLNNLSFLYLYNNQLSGSIPEEISYLRSLTELDLSDNALNGSIPASLGNMNNLSFLFLYGNQLSGSIPEEICYLRSLTYLDLSENALNGSIPASLGNLNNLSFLFLYGNQLSGSIPEEIGYLRSLNVLGLSENALNGSIPASLGNLKNLSRLNLVNNQLSGSIPASLGNLNNLSMLYLYNNQLSGSIPASLGNLNNLSMLYLYNNQLSGSIPASLGNLNNLSRLYLYNNQLSGSIPEEIGYLSSLTYLDLSNNSINGFIPASFGNMSNLAFLFLYENQLASSVPEEIGYLRSLNVLDLSENALNGSIPASFGNLNNLSRLNLVNNQLSGSIPEEIGYLRSLNVLDLSENALNGSIPASFGNLNNLSRLNLVNNQLSGSIPEEIGYLRSLNDLGLSENALNGSIPASLGNLNNLSMLYLYNNQLSGSIPEEIGYLSSLTYLSLGNNSLNGLIPASFANMRNLQALILNDNNLIGEIPSSVCNLTSLEVLYMPRNNLKGKVPQCLGNISNLQVLSMSSNSFSGELPSSISNLTSLQILDFGRNNLEGAIPQCFGNISSLEVFDMQNNKLSGTLPTNFSIGCSLISLNLHGNELEDEIPRSLDNCKKLQVLDLGDNQLNDTFPMWLGTLPELRVLRLTSNKLHGPIRSSRAEIMFPDLRIIDLSRNAFSQDLPTSLFEHLKGMRTVDKTMEEPSYESYYDDSVVVVTKGLELEIVRILSLYTVIDLSSNKFEGHIPSVLGDLIAIRILNVSHNALQGYIPSSLGSLSILESLDLSFNQLSGEIPQQLASLTFLEFLNLSHNYLQGCIPQGPQFRTFESNSYEGNDGLRGYPVSKGCGKDPVSEKNYTVSALEDQESNSEFFNDFWKAALMGYGSGLCIGISMIYILISTGNLRWLARIIEKLEHKIIMQRRKKQRGQRNYRRRNNHF
B2: Cf-2.2 protein (polypeptide encoded by the tomato Cf-2.2 gene) (receptor)
chain: B1 chain with A618G, M1041I, K1060E, H1085R

Biological target: Avr2 elicitor molecule of Cladosporium fulvum (Cladosporium fulvum)

Row | Binder | resistance of progeny of resistant transformants to matched races of C. fulvum carrying or lacking Avr-2 (race 5,9 compared with race 2,5,9)
1 | B1 | 75%
2 | B2 | 75%
